Results published in article PMC4073121.

Tests used:
[1] = target: bfloGFPa1, green fluorescent protein of Amphioxus (Branchiostoma floridae) (Branchiostoma floridae); assay: SEC; size exclusion chromatography of the purified protein (Fig. S1); column and buffer not told
[2] = target: bfloGFPc1, green fluorescent protein of Amphioxus (Branchiostoma floridae) (Branchiostoma floridae); assay: as above

Row | stoichiometry N [1] | stoichiometry N [2] | Substance
1 | 2 | – | bfloGFPa1, green fluorescent protein of Amphioxus (Branchiostoma floridae) (natural protein)
2 | – | 2 | bfloGFPc1, green fluorescent protein of Amphioxus (Branchiostoma floridae) (natural protein)
